{
  "source": "paper PMC12182300",
  "about": "“Biochemical impact of p300-mediated acetylation of replication protein A: Implications for DNA metabolic pathway choice” (The Journal of Biological Chemistry, 2025)",
  "molecules": {"B1": {"name": "20 nt double flap (U26:D43:T49) (structured_DNA)", "DNA 1": "GCCCAGTCACGTCGTTGTAAAACGGGTCGTGACTGGGAAAACCCTGGCG", "DNA 2": "TTAGTTAATTCACTGGCCGTCGTTTTACAACGACGTGACTGGG", "DNA 3": "CGCCAGGGTTTTCCCAGTCACGACCA"}, "B2": {"name": "LB.28 (28 nt) (ssDNA)", "DNA": "TTCACGCCTGTTAGTTAATTCACTGGCC"}, "B3": {"name": "LB.32 (32 nt) (ssDNA)", "DNA": "TTCACGCCTGTTAGTTAATTCACTGGCCGTAC"}, "B4": {"name": "LB.45 (45 nt) (ssDNA)", "DNA": "TTCACTATAACTACCTAATCTTCTGGCCGTACTGAACTACTGACA"}, "B5": {"name": "LB.30 (30 nt) (ssDNA)", "DNA": "TTCACGAGATTTACTTATTTCACTGCGGCT"}},
  "key": {"[1]": {"biological_target": "T1, Replication Protein A (RPA), 70 kDa subunit RPA1 (Homo sapiens, UniProt P27694)", "T1 construct": "Full-length human (h)RPA heterotrimer, unmodified (Um-RPA); with RPA2 and RPA3 (RPA heterotrimer)", "T1 sequence (P27694 whole entry)": "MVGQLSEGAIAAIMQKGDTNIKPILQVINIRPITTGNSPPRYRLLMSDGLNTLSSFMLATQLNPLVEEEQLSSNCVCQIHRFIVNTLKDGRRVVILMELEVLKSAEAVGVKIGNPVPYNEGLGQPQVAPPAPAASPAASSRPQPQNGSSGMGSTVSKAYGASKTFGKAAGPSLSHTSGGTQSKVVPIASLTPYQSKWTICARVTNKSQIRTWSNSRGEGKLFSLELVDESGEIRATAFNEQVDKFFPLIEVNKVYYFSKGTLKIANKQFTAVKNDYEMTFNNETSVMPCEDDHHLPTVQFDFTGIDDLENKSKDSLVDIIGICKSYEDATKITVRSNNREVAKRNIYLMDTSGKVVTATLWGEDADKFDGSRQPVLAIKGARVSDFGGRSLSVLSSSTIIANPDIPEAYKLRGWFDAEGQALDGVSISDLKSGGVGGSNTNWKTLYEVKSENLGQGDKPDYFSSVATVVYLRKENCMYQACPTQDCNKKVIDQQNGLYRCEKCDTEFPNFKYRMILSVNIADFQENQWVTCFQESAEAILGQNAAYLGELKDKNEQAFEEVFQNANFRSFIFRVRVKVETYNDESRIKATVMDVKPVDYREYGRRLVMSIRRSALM", "T1 sequence (P15927 whole entry partner)": "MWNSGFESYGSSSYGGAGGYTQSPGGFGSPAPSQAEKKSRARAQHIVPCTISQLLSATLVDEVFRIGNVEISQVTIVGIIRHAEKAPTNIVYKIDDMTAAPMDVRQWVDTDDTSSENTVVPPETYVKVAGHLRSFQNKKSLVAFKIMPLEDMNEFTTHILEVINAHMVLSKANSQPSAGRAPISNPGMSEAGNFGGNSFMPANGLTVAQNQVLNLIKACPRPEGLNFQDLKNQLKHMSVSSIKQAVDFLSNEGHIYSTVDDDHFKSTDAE", "T1 sequence (P35244 2-121 partner)": "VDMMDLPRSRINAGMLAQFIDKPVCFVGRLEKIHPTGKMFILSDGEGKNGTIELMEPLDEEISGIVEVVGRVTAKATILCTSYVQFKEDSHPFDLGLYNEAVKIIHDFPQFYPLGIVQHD", "experiment": "RPAi titration of purified Um-RPA binding to ssDNA (gel data, Fig. S6)"}, "FEN1": {"biological_target": "FEN1 (UniProt P39748 1-380)", "sequence (P39748 whole entry)": "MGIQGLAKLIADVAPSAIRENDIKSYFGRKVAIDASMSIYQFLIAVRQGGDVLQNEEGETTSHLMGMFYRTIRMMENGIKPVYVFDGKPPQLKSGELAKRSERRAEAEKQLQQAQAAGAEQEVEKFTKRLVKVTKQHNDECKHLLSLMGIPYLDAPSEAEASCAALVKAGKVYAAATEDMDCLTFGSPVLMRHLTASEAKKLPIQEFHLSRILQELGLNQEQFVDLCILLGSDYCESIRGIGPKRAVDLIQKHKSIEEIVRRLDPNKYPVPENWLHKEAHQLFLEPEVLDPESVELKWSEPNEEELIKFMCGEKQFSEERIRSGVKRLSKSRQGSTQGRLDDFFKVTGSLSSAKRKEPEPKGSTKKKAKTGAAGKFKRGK", "experiment": "EMSA; 50 nM FEN1, 20 uM EDTA; high-affinity binding; EMSA: 50 mM Tris-HCl pH 8.0, 2 mM DTT, 30 mM NaCl, 0.1 mg/ml BSA, 5% glycerol, 10 min 37 °C; FEN1/RPA flap EMSA: same with 20 mM NaCl, 20 uM EDTA; BLI: 1X HAT buffer, 31.25-250 nM RPA", "settings": "protein: recombinant; double flap: 20 nt 5' flap (strand 2), 1 nt 3' flap (strand 3); 1:2 1:3; 1 nt 5' overhang on strand 1"}, "[2]": {"biological_target": "T2, Um-RPA (unmodified RPA heterotrimer) (Homo sapiens, UniProt P27694;P15927;P35244 1-616;1-270;1-121)", "T2 sequence (P27694 whole entry, chain 1 of 3)": "as the sequence (P27694 whole entry) above", "T2 sequence (P15927 whole entry, chain 2 of 3)": "as the sequence (P15927 whole entry partner) above", "T2 sequence (P35244 whole entry, chain 3 of 3)": "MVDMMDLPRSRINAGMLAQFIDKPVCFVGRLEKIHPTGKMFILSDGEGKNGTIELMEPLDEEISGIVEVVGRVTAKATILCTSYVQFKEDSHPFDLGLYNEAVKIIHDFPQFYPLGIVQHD", "experiment": "BLI; KD only in Fig. 4D; higher KD than Ac-RPA; EMSA: 50 mM Tris-HCl pH 8.0, 2 mM DTT, 30 mM NaCl, 0.1 mg/ml BSA, 5% glycerol, 10 min 37 °C; FEN1/RPA flap EMSA: same with 20 mM NaCl, 20 uM EDTA; BLI: 1X HAT buffer, 31.25-250 nM RPA", "settings": "protein: recombinant; copies: 1;1;1; label: 3'-biotin (BLI); 5'-32P (EMSA); single strand"}, "[3]": {"biological_target": "T2, Um-RPA (unmodified RPA heterotrimer)", "experiment": "BLI; KD only in Fig. 4D; smallest fold difference to Ac-RPA; EMSA: 50 mM Tris-HCl pH 8.0, 2 mM DTT, 30 mM NaCl, 0.1 mg/ml BSA, 5% glycerol, 10 min 37 °C; FEN1/RPA flap EMSA: same with 20 mM NaCl, 20 uM EDTA; BLI: 1X HAT buffer, 31.25-250 nM RPA", "settings": "protein: recombinant; copies: 1;1;1; label: 3'-biotin (BLI); 5'-TAMRA (EMSA); single strand"}, "RPA1 DBD-F, unmodified": {"biological_target": "RPA1 DBD-F, unmodified (Homo sapiens, UniProt P27694 1-180)", "sequence (P27694 1-180)": "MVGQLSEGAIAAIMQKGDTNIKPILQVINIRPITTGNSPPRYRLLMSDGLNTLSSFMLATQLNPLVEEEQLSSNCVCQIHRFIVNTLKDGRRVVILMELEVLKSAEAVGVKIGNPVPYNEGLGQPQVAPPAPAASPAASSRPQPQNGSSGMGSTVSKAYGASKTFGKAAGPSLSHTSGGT", "experiment": "EMSA; 25-150 nM protein, 25 nM DNA; EMSA: 50 mM Tris-HCl pH 8.0, 2 mM DTT, 30 mM NaCl, 0.1 mg/ml BSA, 5% glycerol, 10 min 37 °C; FEN1/RPA flap EMSA: same with 20 mM NaCl, 20 uM EDTA; BLI: 1X HAT buffer, 31.25-250 nM RPA", "settings": "protein: recombinant; tags: C-terminal His6; label: 5'-TAMRA; single strand"}},
  "data": [
    {"molecule": "CCOc1ccc2cc(C3CC(c4ccc(I)cc4)=NN3C(=O)CCCC(=O)O)c(Cl)nc2c1", "note": "(stereo not shown) [TDRL-551]", "values": [
      {"measurement": "IC50", "setting": "[1]", "value": "4.46 ± 0.11", "unit": "µM"}
    ]},
    {"molecule": "DA1-73", "values": [
      {"measurement": "IC50", "setting": "[1]", "value": "6.43 ± 0.29", "unit": "µM"}
    ]},
    {"molecule": "B1", "values": [
      {"measurement": "binding result", "setting": "FEN1", "value": "binds"}
    ]},
    {"molecule": "B2", "values": [
      {"measurement": "binding result", "setting": "[2]", "value": "binds"}
    ]},
    {"molecule": "B3", "values": [
      {"measurement": "binding result", "setting": "[2]", "value": "binds"}
    ]},
    {"molecule": "B4", "values": [
      {"measurement": "binding result", "setting": "[3]", "value": "binds"}
    ]},
    {"molecule": "B5", "values": [
      {"measurement": "binding result", "setting": "RPA1 DBD-F, unmodified", "value": "no binding"}
    ]}
  ]
}
